The EC50 is the concentration that produces a half-maximal response. Lower therefore signals an effect from little substance.

Assay [1] has as its target EBOV GP (Ebola virus , Mayinga) (UniProt Q05320). The experiment in a line: cell-based or functional assay.
Assay [2] shares this target.
For assay [3] the target is unchanged. The source holds these as a separate data set.

Where “and” joins values, the source holds several entries; their conditions need not be identical. Identical values can stand only once.

Sequence of UniProt Q05320 (Q05320 33-501, chain 1 of 2): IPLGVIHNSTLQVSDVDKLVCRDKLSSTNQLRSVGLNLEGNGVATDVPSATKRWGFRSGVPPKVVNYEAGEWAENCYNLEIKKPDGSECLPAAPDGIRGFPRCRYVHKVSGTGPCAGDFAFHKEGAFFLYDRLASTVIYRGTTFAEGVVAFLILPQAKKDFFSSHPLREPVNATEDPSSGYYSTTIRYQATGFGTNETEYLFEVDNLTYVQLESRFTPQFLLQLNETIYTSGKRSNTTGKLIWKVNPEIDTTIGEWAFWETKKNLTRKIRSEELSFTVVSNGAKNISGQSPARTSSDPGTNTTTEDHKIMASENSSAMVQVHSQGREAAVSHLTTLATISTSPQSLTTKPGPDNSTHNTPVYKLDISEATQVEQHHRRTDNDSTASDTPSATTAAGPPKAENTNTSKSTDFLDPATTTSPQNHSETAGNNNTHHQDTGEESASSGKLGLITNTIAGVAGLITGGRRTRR
Sequence of UniProt Q05320 (Q05320 502-650, chain 2 of 2): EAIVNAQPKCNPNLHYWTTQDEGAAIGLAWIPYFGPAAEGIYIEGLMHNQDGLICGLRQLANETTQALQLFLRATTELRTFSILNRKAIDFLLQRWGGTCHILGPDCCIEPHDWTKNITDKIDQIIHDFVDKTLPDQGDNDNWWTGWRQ

Consider KZ52 (antibody), for which the maximum inhibition of input virus in assay [1] is 80% and 90%.

13C6 (antibody) registered a neutralization at 10 µg/mL in assay [1] below 20%.

B1: EVB167 (antibody, V domains shown)
VH: AVQLVQSGAEVKKPGTTVKISCKVSGYTFIQEYIHWVQQAPGKGLVWMGLGDPENNETLYSEDFQGRVTMTADTSSDTAYLELRSLTFADTAVYFCTSRKSWWGQGTLVTVAS
VL: ELVLTQSPGTLSLSPGESATLSCRASQSLSSDSVSWFQQKPGQAPRLVIHGTSKRATGIPDRFSGGGSGTDFTLTIARLEPEDFAVYYCQRSGYGMSVTWTFGQGTTVEIK
As to B1, in assay [2], the Abs 450 (1/27) came out at 2.97 Abs 450 and the Abs 450 (Und.) was found to be 3.37 Abs 450.

B2: EVB165 (antibody, V domains shown)
VH: DVQLVESGGGVVQPGGSLKLACVVSGFRFSDYWMSWVRQAPGKGLEWVANIKQDGSGKYYVDSVKGRFTVSRDNAKNSLYLHMTSLGAEDTAVYFCARAAPTGSYTNILVDNVHFDYWGQGILVAVSS
VL: GIQLTQSPGSLSASVGDSVTITCRPNQNIATYINWYQQTPGKAPKLLIYAASILQSGVPSRFSGAGSGTHFTLIISTLQPEDSATYYCQQSYSTPWTFGQGTKVEIK
In assay [2], B2 came in with an Abs 450 (1/27) of 1.72 Abs 450 and an Abs 450 (Und.) of 3.17 Abs 450. For the same molecule, the EC50 in assay [3] was above 1 µg/mL. The maximum inhibition of input virus in assay [1] is 100%.

B3: EVB100 (antibody, V domains shown)
VH: QVQLQESGPGLVKPSDTLSLTCTVSGGSLSSFYWSWIRQPPGKGLEWIGYIYYSGSPNYSPSLESRVTMSVDTTRNQISLKLDSVTAADTAVYYCVRASRSYYWGSYRPTAFDSWGQGTLVTVSS
VL: SYELTQPLSVSVSPGQTAIFTCSGDNLGDKYVCWFQQRPGQSPMLLIYQDNKRPSGIPERFSGSNSGNTATLTISGTQSTDEADYYCQTWDSTVVFGGGTKLTVL
Turning to B3, the EC50 in assay [3] amounted to 0.26 µg/mL. Further, the maximum inhibition of input virus in assay [1] came to 100%.

B4: EVB114 (antibody, V domains shown)
VH: EVQLVESGGGLIQPGGSLRLSCAASGFALRMYDMHWVRQTIDKRLEWVSAVGPSGDTYYADSVKGRFAVSRENAKNSLSLQMNSLTAGDTAIYYCVRSDRGVAGLFDSWGQGILVTVSS
VL: DIQMTQSPSSLSASVGDRITITCRASQAFDNYVAWYQQRPGKVPKLLISAASALHAGVPSRFSGSGSGTHFTLTISSLQPEDVATYYCQNYNSAPLTFGGGTKVEIK
Take B4: in assay [3], the EC50 was 0.07 µg/mL and the maximal binding, higher than the other antibodies was 100%. Further, the maximum inhibition of input virus in assay [1] stood at 100%.

The values are drawn from patent US20190071489A1.
